Source: patent publication US20090081760A1, “DMO METHODS AND COMPOSITIONS” (priority 2007, published 2009)

Experiments:
[1] = molecular target: the molecule itself; experiment: X-ray crystal structure (homotrimer in the asymmetric unit)
Dicamba = experiment: LC-MS/MS screen for oxygenase (DMO) activity: E. coli liquid culture expressing ddmC or a variant, grown with dicamba, DCSA detected in supernatant; assay type: cell-based
Protocol: An LC-MS/MS screen for oxygenase activity was used to detect DCSA. The method comprises a two stage process made up of a liquid cell culture assay coupled to an LC-MS/MS detection screen. In the liquid cell culture stage, the gene of interest, i.e. ddmC or a variant thereof, was cloned under the control of a promoter (e.g. T7 promoter, pET vector) and transformed into an E. coli host cell. […] Cells were spun down, and the supernatant was filtered and diluted tenfold with the inclusion of 8 μM salicylic acid as an internal standard. Samples of the supernatant, and/or optionally the cell pellet (or lysate thereof), from this first stage were analyzed for DCSA levels (i.e. DMO activity level) by LC-MS/MS.
While many oxygenases such as DMO are multi component systems requiring other helper enzymes for activity, it was observed that components in E. coli may substitute for these helper enzymes or functions. Thus, transformation of E. coli with a single “oxygenase” gene from a multi component system nevertheless results in measurable activity for the gene alone, even without other components being co-transformed into the same E. coli cell. Activity is observed because, in E. coli cells, surrogates with homology to the original helper enzymes (e.g. ferredoxin and reductase) may be utilized. Additionally, E. coli can take up substrate (e.g. dicamba) and excrete the product (e.g. DCSA) into the media supernatant, allowing for the speed and simplicity of this cell based screen. No lysis of cells is required. Alternatively, an HPLC-based assay for DMO activity may be utilized. Promising variants were used as templates for additional rounds DOT and or other mutagenesis methods in an iterative manner. […]
Sets of saturation mutagenesis primers (using NNS degenerate triplets) for 31 residues at the active site and involved in the electron transfer chain as indicated in Table 28 were designed and used to introduce mutations into the ddmC gene by means of terminated PCR on the template (ddmC gene with His tag and two changes, T2S+I123L (SEQ ID NO:23) in pMV4 vector (Modular Genetics, Cambridge, Mass.). Resulting PCR products were treated with DpnI to remove the parental template molecules, self-annealed and transformed into chemically competent E. coli Top10 F′ (Invitrogen, Carlsbad, Calif.). Standard DNA cloning methods were utilized (e.g. Sambrook et al., 1989). The individual colonies were grown in liquid culture. DNA was isolated by a standard miniprep procedure and used to transform the chemically competent E. coli (e.g. BL21(DE3)). […] Cells were spun down, and the supernatant was filtered and diluted tenfold with 8 μM salicylic acid as an internal standard. The DCSA levels (i.e. DMO activity level) were determined by LC-MS analysis as described above (e.g. Example 8).
Additional single substitution variants of DMO at residues corresponding to interaction (e.g. subunit interface) domains and the ferredoxin binding site were also prepared and assayed for their effect on enzymatic activity (See also Examples 8A, 8B) by the LC/MS screen. In most cases shown in Table 29, one conservative and one neutral substitution was tried at a given residue.
Table 30 lists DMO activity data (by LC/MS screen) for 58 variants relative to ddmC_M—6his (the wild type ddmC sequence with an N-terminal His tag (SEQ ID NO: 154), while Table 31 lists DMO activity data (by LC/MS screen) for 1685 variants relative to ddmC_RLE6his (the wild type ddmC sequence with T2S and I123L mutations (SEQ ID NO:23), and a C-terminal 6×His tag). The numbering of residues is based on the numbering found in SEQ ID NO:2 or SEQ ID NO:3.

B1: dicamba monooxygenase (DMO) (enzyme)
chain: MATFVRNAWYVAALPEELSEKPLGRTILDTPLALYRQPDGVVAALLDICPHRFAPLSDGILVNGHLQCPYHGLEFDGGGQCVHNPHGNGARPASLNVRSFPVVERDALIWIWPGDPALADPGAIPDFGCRVDPAYRTVGGYGHVDCNYKLLVDNLMDLGHAQYVHRANAQTDAFDRLEREVIVGDGEIQALMKIPGGTPSVLMAKFLRGANTPVDAWNDIRWNKVSAMLNFIAVAPEGTPKEQSIHSRGTHILTPETEASCHYFFGSSRNFGIDDPEMDGVLRSWQAQALVKEDKVVVEAIERRRAYVEANGIRPAMLSCDEAAVRVSREIEKLEQLEAARLEHHHHHH
notes: also called DMOw; DdmC
B1: binds [1].

B2: R248L: DMO substitution variant (protein)
chain: MATFVRNAWYVAALPEELSEKPLGRTILDTPLALYRQPDGVVAALLDICPHRFAPLSDGILVNGHLQCPYHGLEFDGGGQCVHNPHGNGARPASLNVRSFPVVERDALIWICPGDPALADPGAIPDFGCRVDPAYRTVGGYGHVDCNYKLLVDNLMDLGHAQYVHRANAQTDAFDRLEREVIVGDGEIQALMKIPGGTPSVLMAKFLRGANTPVDAWNDIRWNKVSAMLNFIAVAPEGTPKEQSIHSLGTHILTPETEASCHYFFGSSRNFGIDDPEMDGVLRSWQAQALVKEDKVVVEAIERRRAYVEANGIRPAMLSCDEAAVRVSREIEKLEQLEAARLEHHHHHH
With B2 the “Changed to: L % of control for set” value (Dicamba; residue changed to L, DCSA relative to control average of the data set) was 153.00% and the “Changed to: L DCSA values (ppm)” value (Dicamba; residue changed to L, mean +/− SD (n)) was 40.68 +/− 10.77 (4) ppm.

B3: R248K: DMO substitution variant (protein)
chain: MATFVRNAWYVAALPEELSEKPLGRTILDTPLALYRQPDGVVAALLDICPHRFAPLSDGILVNGHLQCPYHGLEFDGGGQCVHNPHGNGARPASLNVRSFPVVERDALIWICPGDPALADPGAIPDFGCRVDPAYRTVGGYGHVDCNYKLLVDNLMDLGHAQYVHRANAQTDAFDRLEREVIVGDGEIQALMKIPGGTPSVLMAKFLRGANTPVDAWNDIRWNKVSAMLNFIAVAPEGTPKEQSIHSKGTHILTPETEASCHYFFGSSRNFGIDDPEMDGVLRSWQAQALVKEDKVVVEAIERRRAYVEANGIRPAMLSCDEAAVRVSREIEKLEQLEAARLEHHHHHH
B3 was tested, and the “Changed to: K % of control for set” value (Dicamba; residue changed to K, DCSA relative to control average of the data set) was 155.15% and the “Changed to: K DCSA values (ppm)” value (Dicamba; residue changed to K, mean +/− SD (n)) was 41.25 +/− 4.05 (4) ppm.

B4: R248M: DMO substitution variant (protein)
chain: MATFVRNAWYVAALPEELSEKPLGRTILDTPLALYRQPDGVVAALLDICPHRFAPLSDGILVNGHLQCPYHGLEFDGGGQCVHNPHGNGARPASLNVRSFPVVERDALIWICPGDPALADPGAIPDFGCRVDPAYRTVGGYGHVDCNYKLLVDNLMDLGHAQYVHRANAQTDAFDRLEREVIVGDGEIQALMKIPGGTPSVLMAKFLRGANTPVDAWNDIRWNKVSAMLNFIAVAPEGTPKEQSIHSMGTHILTPETEASCHYFFGSSRNFGIDDPEMDGVLRSWQAQALVKEDKVVVEAIERRRAYVEANGIRPAMLSCDEAAVRVSREIEKLEQLEAARLEHHHHHH
In the case of B4, the “Changed to: M % of control for set” value (Dicamba; residue changed to M, DCSA relative to control average of the data set) is reported as 128.37% and the “Changed to: M DCSA values (ppm)” value (Dicamba; residue changed to M, mean +/− SD (n)) is reported as 34.13 +/− 3.09 (4) ppm.

B5: L282I: DMO substitution variant (protein)
chain: MATFVRNAWYVAALPEELSEKPLGRTILDTPLALYRQPDGVVAALLDICPHRFAPLSDGILVNGHLQCPYHGLEFDGGGQCVHNPHGNGARPASLNVRSFPVVERDALIWICPGDPALADPGAIPDFGCRVDPAYRTVGGYGHVDCNYKLLVDNLMDLGHAQYVHRANAQTDAFDRLEREVIVGDGEIQALMKIPGGTPSVLMAKFLRGANTPVDAWNDIRWNKVSAMLNFIAVAPEGTPKEQSIHSRGTHILTPETEASCHYFFGSSRNFGIDDPEMDGVIRSWQAQALVKEDKVVVEAIERRRAYVEANGIRPAMLSCDEAAVRVSREIEKLEQLEAARLEHHHHHH
In the case of B5, the “Changed to: I % of control for set” value (Dicamba; residue changed to I, DCSA relative to control average of the data set) is reported as 116.03% and the “Changed to: I DCSA values (ppm)” value (Dicamba; residue changed to I, mean +/− SD (n)) is reported as 44.35 +/− 1.22 (4) ppm.

B6: Control: control (wild type) DMO of the Table 29 LC/MS screen (protein, UniProt Q5S3I3 2-339, looked up)
Dicamba O-demethylase, …: TFVRNAWYVAALPEELSEKPLGRTILDTPLALYRQPDGVVAALLDICPHRFAPLSDGILVNGHLQCPYHGLEFDGGGQCVHNPHGNGARPASLNVRSFPVVERDALIWIWPGDPALADPGAIPDFGCRVDPAYRTVGGYGHVDCNYKLLVDNLMDLGHAQYVHRANAQTDAFDRLEREVIVGDGEIQALMKIPGGTPSVLMAKFLRGANTPVDAWNDIRWNKVSAMLNFIAVAPEGTPKEQSIHSRGTHILTPETEASCHYFFGSSRNFGIDDPEMDGVLRSWQAQALVKEDKVVVEAIERRRAYVEANGIRPAMLSCDEAAVRVSREIEKLEQLEAA
In the case of B6, the “Control DCSA Produced (ppm) Set 1 average (±SD)” value (Dicamba; Set 1 average) is reported as 38.22 ± 7.81 ppm, the “Control DCSA Produced (ppm) Set 2 average (±SD)” value (Dicamba; Set 2 average) is reported as 26.59 ± 4.96 ppm and the “Control DCSA Produced (ppm) Set 3 average (±SD)” value (Dicamba; Set 3 average) is reported as 38.00 ± 6.87 ppm.
